This note sets out measurements from publication PMC5443773 (Scientific Reports, 2017).

This data set deals with the molecule itself. Kind of data set: crystal structure.

B1: El Tor cholera toxin B-pentamer (natural protein)
chain: TPQNITDLCAEYHNTQIYTLNDKIFSYTESLAGKREMAIITFKNGAIFQVEVPGSQHIDSQKKAIERMKDTLRIAYLTEAKVEKLCVWNNKTPHAIAAISMAN
For the protein B1, the “stoichiometry N” value came to 5.
